Laboratory results as given in PMC4767637 (Journal of molecular biology, 2016).

Target: the molecule itself
Assay: NMR

B1: Tyr-705-phosphorylated STAT3 (127-711)-His6 (domain or fragment, human, UniProt P40763 127-711, looked up)
chain: GQANHPTAAVVTEKQQMLEQHLQDVRKRVQDLEQKMKVVENLQDDFDFNYKTLKSQGDMQDLNGNNQSVTRQKMQQLEQMLTALDQMRRSIVSELAGLLSAMEYVQKTLTDEELADWKRRQQIACIGGPPNICLDRLENWITSLAESQLQTRQQIKKLEELQQKVSYKGDPIVQHRPMLEERIVELFRNLMKSAFVVERQPCMPMHPDRPLVIKTGVQFTTKVRLLVKFPELNYQLKIKVCIDKDSGDVAALRGSRKFNILGTNTKVMNMEESNNGSLSAEFKHLTLREQRCGNGGRANCDASLIVTEELHLITFETEVYHQGLKIDLETHSLPVVVISNICQMPNAWASILWYNMLTNNPKNVNFFTKPPIGTWDQVAEVLSWQFSSTTKRGLSIEQLTTLAEKLLGPGVNYSGCQITWAKFCKENMAGKGFSFWVWLDNIIDLVKKYILALWNEGYIMGFISKERERAILSTKPPGTFLLRFSESSKEGGVTFTWVEKDISGKTQIQSVEPYTKQQLNNMSFAEIIMGYKIMDATNILVSPLVYLYPDIPKEEAFGKYCRPESQEHPEADPGSAAPYLKTKFI
modifications: phosphotyrosine at 705
- dH (van't Hoff, monomer-dimer equilibrium, from I568 and I654): 14.8 ± 1.1 kcal/mol
- dH (van't Hoff, monomer-dimer equilibrium, from I653 and I711): 12.8 ± 0.5 kcal/mol
